Assay results published in US20140235820A1, “METHODS AND COMPOSITIONS FOR MODULATING THE Wnt PATHWAY” (Genentech, Inc., priority 2010, published 2014).

T1: LRP6 E1E2 (Homo sapiens, UniProt O75581)
T1 construct: construct E1E2-amino acids A20-E631 of LPR6; made in house; host or cells: Tni insect cells (baculovirus, secreted)
T1 sequence (O75581 20-631): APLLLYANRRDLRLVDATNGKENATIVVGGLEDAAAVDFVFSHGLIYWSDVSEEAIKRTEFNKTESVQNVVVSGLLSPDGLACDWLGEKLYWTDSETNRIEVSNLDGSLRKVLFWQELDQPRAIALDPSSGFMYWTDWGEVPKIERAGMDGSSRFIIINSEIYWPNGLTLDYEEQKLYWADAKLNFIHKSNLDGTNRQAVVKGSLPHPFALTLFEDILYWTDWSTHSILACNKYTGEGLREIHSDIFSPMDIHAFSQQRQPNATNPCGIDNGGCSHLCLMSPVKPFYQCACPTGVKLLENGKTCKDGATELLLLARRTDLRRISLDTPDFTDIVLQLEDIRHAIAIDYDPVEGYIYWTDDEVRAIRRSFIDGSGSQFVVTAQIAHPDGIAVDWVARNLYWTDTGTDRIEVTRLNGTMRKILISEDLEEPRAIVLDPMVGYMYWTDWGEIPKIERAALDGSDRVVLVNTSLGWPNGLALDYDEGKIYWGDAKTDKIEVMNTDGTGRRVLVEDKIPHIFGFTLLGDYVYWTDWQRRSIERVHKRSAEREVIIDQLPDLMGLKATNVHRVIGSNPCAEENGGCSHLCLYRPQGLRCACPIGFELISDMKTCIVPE


Columns and labels:
LRP6 E1E2 = target: T1, LRP6 E1E2; test: Biolayer interferometry binding to LRP6 E1E2
Procedure: Binding kinetics were measured by biolayer interferometry using an Octet Red instrument (ForteBio) as previously described (11). Streptavidin (SA) biosensors were loaded with biotinylated hLRP6 in 50 mMTris, pH 8, 300 mM NaCl, 5% (v/v) glycerol, and 0.05% (w/v) Triton X-100. The loaded biosensors were washed in the same buffer before carrying out association and dissociation measurements for the indicated times. The Kd of each interaction was determined using steady state-analysis through the Octet Red software v6.3. Each reported value represents an average of three or more experiments at different concentrations, with a fitted experimental curve for which the square of the correlation coefficient (R^2) is above 0.96.
The interaction of the different Dkks and sclerostin with various domains of LRP6 was measured using a biolayer interferometry assay (11). Purified receptors contained individual β-propeller-EGF-like units (E1, E2, or E4), two β-propellers (E1E2 or E3E4), or four β-propellers (E1E4))—as follows:
Human LRP6: construct E1E4-amino acids A20-Q1253 of LPR6; construct E1E2-amino acids A20-E631 of LPR6; construct E3E4 amino acids E631-Q1253 of LPR6; construct E1-amino acids A20-D325 of LPR6; construct E2-amino acids […]-E631 of LPR6; construct E4-T933-Q1253. The individual LRP6 β-propeller E3 could not be expressed.

Wnt1-dependent signaling = test: Wnt-dependent TOPbrite luciferase reporter assay, cells transfected with Wnt1; format: cell-based; conditions: cells stably transfected with reporter, transiently with Wnt1
Procedure: FIG. 12. Induction of a Wnt/β-catenin reporter in the presence or absence of wild-type and mutant inhibitors. Cells were transfected by Wnt1 (binds to LRP6 E1E2). Dkk1 and sclerostin variants, or the control inhibitor Fz8 CRD, were used at the indicated doses.
Wnt signaling was assessed either in mouse fibroblast L-cells or in HEK293s cells. The luciferase reporter assay in 293 cells was performed as described (52). The mouse fibroblast L-cell imaging assay was conducted essentially as described(53). Cells were treated with Wnt3a, Fz8 CRD ((US Patent Publication 20080299136; (54), LRP6, or Dkk1, or combinations of these proteins, as indicated and processed after an additional 6 h at 37° C./5% CO2.
To test whether the observed effects on binding between purified proteins were relevant to cellular signaling, Dkk1 and sclerostin activities were tested further in a Wnt-dependent TOPbrite luciferase reporter assay (52). Cells stably transfected with reporter were transfected transiently with Wnt1. The Wnt-transfected cells were treated with purified Dkk1 or sclerostin variants, and the effect on reporter induction was measured (FIG. 12). […] This is consistent with earlier observations that Wnt1 belongs to a class of Wnts signaling through the E1E2 portion of to LRP5/6 (11, 52). The Dkk1 and sclerostin mutants show activities consistent with their binding to LRP6 (FIG. 12). Sclerostin Ile119Glu (“NXI” motif) is impaired relative to wild-type in its ability to inhibit Wnt1-driven signaling, as is Dkk1 Ile42Glu.

Molecule	binding to LRP6 E1E2 (in words) (LRP6 E1E2)	Kd (LRP6 E1E2; steady state, read-out: affinity for LRP6 E1E2) [nM]	inhibition of Wnt1-dependent signaling (reporter induction) (Wnt1-dependent signaling)
Dkk1: Dickkopf 1 protein, Wnt pathway inhibitor, expressed in insect cells (NSNAIKN)	–	22	strong inhibition
Dkk1 K211E (ligand, human, UniProt O94907 32-266, looked up, also called Dkk1 Lys211Glu) TLNSVLNSNAIKNLPPPLGGAAGHPGSAVSAAPGILYPGGNKYQTIDNYQPYPCAEDEECGTDEYCASPTRGGDAGVQICLACRKRRKRCMRHAMCCPGNYCKNGICVSSDQNHFRGEIEETITESFGNDHSTLDGYSRRTTLSSKMYHTKGQEGSVCLRSSDCASGLCCARHFWSKICEPVLKEGQVCTKHRRKGSHGLEIFQRCYCGEGLSCRIQKDHHQASNSSRLHTCQRH	–	–	efficiently inhibits

Further lines, with some results ahead:

binding to LRP6 E1E2 (in words) (LRP6 E1E2)	Kd (LRP6 E1E2; steady state, read-out: affinity for LRP6 E1E2) [nM]	Molecule	inhibition of Wnt1-dependent signaling (reporter induction) (Wnt1-dependent signaling)
binds	–	sclerostin: Sclerostin protein, Wnt pathway inhibitor, expressed in insect cells (LPNAIGR)	strong inhibition
affect binding	–	Dkk1 Ile42Glu (ligand, human, UniProt O94907 32-266, looked up, also called Dkk1 I42E) TLNSVLNSNAEKNLPPPLGGAAGHPGSAVSAAPGILYPGGNKYQTIDNYQPYPCAEDEECGTDEYCASPTRGGDAGVQICLACRKRRKRCMRHAMCCPGNYCKNGICVSSDQNHFRGEIEETITESFGNDHSTLDGYSRRTTLSSKMYHTKGQEGSVCLRSSDCASGLCCARHFWSKICKPVLKEGQVCTKHRRKGSHGLEIFQRCYCGEGLSCRIQKDHHQASNSSRLHTCQRH	impaired
